Test system: plasma proteins
Assay: Plasma proteins modulated between baseline and day 28 in responders (CR, VGPR, PR; n = 19), Example 6 (Table 13)
Format: in vivo, human
Conditions: plasma protein (OLINK NPX); responders (CR, VGPR, PR; n = 19); itacitinib 200 mg or 300 mg QD with corticosteroids; day 28 vs baseline
How it was run: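 Plasma at baseline/screening and day 28 profiled for >1000 proteins by OLINK proximity extension assay, reported as NPX (log2). Steroid-naive and steroid-refractory patients pooled. Paired and unpaired t tests, ANOVA and Pearson correlation applied; significance at P<0.05.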

B1: BID (protein, UniProt P55957 1-195, looked up)
BH3-interacting domain death …: MDCEVNNGSSLRDECITNLLVFGFLQSCSDNSFRRELDALGHELPVLAPQWEGYDELQTDGNRSSHSRLGRIEADSESQEDIIRNIARHLAQVGDSMDRSIPPGLVNGLALQLRNTSRSEEDRNRDLATALEQLLQAYPRDMEKEKTMLVLALLLAKKVASHTPSLLRDVFHTTVNFINQNLRTYVRSLARNGMD
With B1 the “Fold Change, Decreased Expression from Baseline to Day 28” value (from here on “Fold Change, Decreased Expression”) was −1.382.

B2: RELT (protein, UniProt Q969Z4 26-430, looked up)
Tumor necrosis factor …: STTLWQCPPGEEPDLDPGQGTLCRPCPPGTFSAAWGSSPCQPHARCSLWRRLEAQVGMATRDTLCGDCWPGWFGPWGVPRVPCQPCSWAPLGTHGCDEWGRRARRGVEVAAGASSGGETRQPGNGTRAGGPEETAAQYAVIAIVPVFCLMGLLGILVCNLLKRKGYHCTAHKEVGPGPGGGGSGINPAYRTEDANEDTIGVLVRLITEKKENAAALEELLKEYHSKQLVQTSHRPVSKLPPAPPNVPHICPHRHHLHTVQGLASLSGPCCSRCSQKKWPEVLLSPEAVAATTPVPSLLPNPTRVPKAGAKAGRQGEITILSVGRFRVARIPEQRTSSMVSEVKTITEAGPSWGDLPDSPQPGLPPEQQALLGSGGSRTKWLKPPAENKAEENRYVVRLSESNLVI
B2 was tested, and the “Fold Change, Decreased Expression” value was −1.3317.

B3: CLEC5A (protein, UniProt Q9NY25 1-188, looked up)
C-type lectin domain family 5 …: MNWHMIISGLIVVVLKVVGMTLFLLYFPQIFNKSNDGFTTTRSYGTVSQIFGSSSPSPNGFITTRSYGTVCPKDWEFYQARCFFLSTSESSWNESRDFCKGKGSTLAIVNTPEKLKFLQDITDAEKYFIGLIYHREEKRWRWINNSVFNGNVTNQNQNFNCATIGLTKTFDAASCDISYRRICEKNAK
B3 was tested, and the “Fold Change, Decreased Expression” value was −1.3618.

B4: CD5 (protein, UniProt P06127 25-495, looked up)
T-cell surface glycoprotein …: RLSWYDPDFQARLTRSNSKCQGQLEVYLKDGWHMVCSQSWGRSSKQWEDPSQASKVCQRLNCGVPLSLGPFLVTYTPQSSIICYGQLGSFSNCSHSRNDMCHSLGLTCLEPQKTTPPTTRPPPTTTPEPTAPPRLQLVAQSGGQHCAGVVEFYSGSLGGTISYEAQDKTQDLENFLCNNLQCGSFLKHLPETEAGRAQDPGEPREHQPLPIQWKIQNSSCTSLEHCFRKIKPQKSGRVLALLCSGFQPKVQSRLVGGSSICEGTVEVRQGAQWAALCDSSSARSSLRWEEVCREQQCGSVNSYRVLDAGDPTSRGLFCPHQKLSQCHELWERNSYCKKVFVTCQDPNPAGLAAGTVASIILALVLLVVLLVVCGPLAYKKLVKKFRQKKQRQWIGPTGMNQNMSFHRNHTATVRSHAENPTASHVDNEYSQPPRNSHLSAYPALEGALHRSSMQPDNSSDSDYDLHGAQRL
For B4, the “Fold Change, Decreased Expression” value was −1.9942.

B5: PSP-D (protein, UniProt P35247 21-375, looked up)
Pulmonary …: AEMKTYSHRTMPSACTLVMCSSVESGLPGRDGRDGREGPRGEKGDPGLPGAAGQAGMPGQAGPVGPKGDNGSVGEPGPKGDTGPSGPPGPPGVPGPAGREGPLGKQGNIGPQGKPGPKGEAGPKGEVGAPGMQGSAGARGLAGPKGERGVPGERGVPGNTGAAGSAGAMGPQGSPGARGPPGLKGDKGIPGDKGAKGESGLPDVASLRQQVEALQGQVQHLQAAFSQYKKVELFPNGQSVGEKIFKTAGFVKPFTEAQLLCTQAGGQLASPRSAAENAALQQLVVAKNEAAFLSMTDSKTEGKFTYPTGESLVYSNWAPGEPNDDGGSEDCVEIFTNGKWNDRACGEKRLVVCEF
For B5, the “Fold Change, Decreased Expression” value was −1.2426.

B6: SELE (protein, UniProt P16581 22-610, looked up)
E-selectin: WSYNTSTEAMTYDEASAYCQQRYTHLVAIQNKEEIEYLNSILSYSPSYYWIGIRKVNNVWVWVGTQKPLTEEAKNWAPGEPNNRQKDEDCVEIYIKREKDVGMWNDERCSKKKLALCYTAACTNTSCSGHGECVETINNYTCKCDPGFSGLKCEQIVNCTALESPEHGSLVCSHPLGNFSYNSSCSISCDRGYLPSSMETMQCMSSGEWSAPIPACNVVECDAVTNPANGFVECFQNPGSFPWNTTCTFDCEEGFELMGAQSLQCTSSGNWDNEKPTCKAVTCRAVRQPQNGSVRCSHSPAGEFTFKSSCNFTCEEGFMLQGPAQVECTTQGQWTQQIPVCEAFQCTALSNPERGYMNCLPSASGSFRYGSSCEFSCEQGFVLKGSKRLQCGPTGEWDNEKPTCEAVRCDAVHQPPKGLVRCAHSPIGEFTYKSSCAFSCEEGFELHGSTQLECTSQGQWTEEVPSCQVVKCSSLAVPGKINMSCSGEPVFGTVCKFACPEGWTLNGSAARTCGATGHWSGLLPTCEAPTESNIPLVAGLSAAGLSLLTLAPFLLWLRKCLRKAKKFVPASSCQSLESDGSYQKPSYIL
With B6 the “Fold Change, Decreased Expression” value was −1.5291.

B7: SELL (protein, UniProt P14151 39-372, looked up)
L-selectin: WTYHYSEKPMNWQRARRFCRDNYTDLVAIQNKAEIEYLEKTLPFSRSYYWIGIRKIGGIWTWVGTNKSLTEEAENWGDGEPNNKKNKEDCVEIYIKRNKDAGKWNDDACHKLKAALCYTASCQPWSCSGHGECVEIINNYTCNCDVGYYGPQCQFVIQCEPLEAPELGTMDCTHPLGNFSFSSQCAFSCSEGTNLTGIEETTCGPFGNWSSPEPTCQVIQCEPLSAPDLGIMNCSHPLASFSFTSACTFICSEGTELIGKKKTICESSGIWSNPSPICQKLDKSFSMIKEGDYNPLFIPVAVMVTAFSGLAFIIWLARRLKKGKKSKRSMNDPY
B7 was tested, and the “Fold Change, Decreased Expression” value was −1.4428.

B8: MESDC2 (protein, UniProt Q14696 34-234, looked up)
LRP chaperone MESD: AEGSPGTPDESTPPPRKKKKDIRDYNDADMARLLEQWEKDDDIEEGDLPEHKRPSAPVDFSKIDPSKPESILKMTKKGKTLMMFVTVSGSPTEKETEEITSLWQGSLFNANYDVQRFIVGSDRAIFMLRDGSYAWEIKDFLVGQDRCADVTLEGQVYPGKGGGSKEKNKTKQDKGKKKKEGDLKSRSSKEENRAGNKREDL
With B8 the “Fold Change, Decreased Expression” value was −1.7056.

B9: CRTAM (protein, UniProt O95727 18-393, looked up)
Cytotoxic and regulatory …: SLTNHTETITVEEGQTLTLKCVTSLRKNSSLQWLTPSGFTIFLNEYPALKNSKYQLLHHSANQLSITVPNVTLQDEGVYKCLHYSDSVSTKEVKVIVLATPFKPILEASVIRKQNGEEHVVLMCSTMRSKPPPQITWLLGNSMEVSGGTLHEFETDGKKCNTTSTLIIHTYGKNSTVDCIIRHRGLQGRKLVAPFRFEDLVTDEETASDALERNSLSSQDPQQPTSTVSVTEDSSTSEIDKEEKEQTTQDPDLTTEANPQYLGLARKKSGILLLTLVSFLIFILFIIVQLFIMKLRKAHVIWKKENEVSEHTLESYRSRSNNEETSSEEKNGQSSHPMRCMNYITKLYSEAKTKRKENVQHSKLEEKHIQVPESIV
With B9 the “Fold Change, Decreased Expression” value was −1.5805.

B10: LILRB2 (protein, UniProt Q8N423 22-597, looked up)
Leukocyte immunoglobulin-like …: QTGTIPKPTLWAEPDSVITQGSPVTLSCQGSLEAQEYRLYREKKSASWITRIRPELVKNGQFHIPSITWEHTGRYGCQYYSRARWSELSDPLVLVMTGAYPKPTLSAQPSPVVTSGGRVTLQCESQVAFGGFILCKEGEDEHPQCLNSQPHARGSSRAIFSVGPVSPNRRWSHRCYGYDLNSPYVWSSPSDLLELLVPGVSKKPSLSVQPGPVMAPGESLTLQCVSDVGYDRFVLYKEGERDLRQLPGRQPQAGLSQANFTLGPVSRSYGGQYRCYGAHNLSSECSAPSDPLDILITGQIRGTPFISVQPGPTVASGENVTLLCQSWRQFHTFLLTKAGAADAPLRLRSIHEYPKYQAEFPMSPVTSAHAGTYRCYGSLNSDPYLLSHPSEPLELVVSGPSMGSSPPPTGPISTPGPEDQPLTPTGSDPQSGLGRHLGVVIGILVAVVLLLLLLLLLFLILRHRRQGKHWTSTQRKADFQHPAGAVGPEPTDRGLQWRSSPAADAQEENLYAAVKDTQPEDGVEMDTRAAASEAPQDVTYAQLHSLTLRRKATEPPPSQEREPPAEPSIYATLAIH
In the case of B10, the “Fold Change, Decreased Expression” value is reported as −1.2555.

B11: TANK (protein, UniProt Q92844 1-425, looked up)
TRAF family member-associated …: MDKNIGEQLNKAYEAFRQACMDRDSAVKELQQKTENYEQRIREQQEQLSLQQTIIDKLKSQLLLVNSTQDNNYGCVPLLEDSETRKNNLTLDQPQDKVISGIAREKLPKVRRQEVSSPRKETSARSLGSPLLHERGNIEKTFWDLKEEFHKICMLAKAQKDHLSKLNIPDTATETQCSVPIQCTDKTDKQEALFKPQAKDDINRGAPSITSVTPRGLCRDEEDTSFESLSKFNVKFPPMDNDSTFLHSTPERPGILSPATSEAVCQEKFNMEFRDNPGNFVKTEETLFEIQGIDPIASAIQNLKTTDKTKPSNLVNTCIRTTLDRAACLPPGDHNALYVNSFPLLDPSDAPFPSLDSPGKAIRGPQQPIWKPFPNQDSDSVVLSGTDSELHIPRVCEFCQAVFPPSITSRGDFLRHLNSHFNGET
B11 was tested, and the “Fold Change, Decreased Expression” value was −1.3124.

B12: CPXM1 (protein, UniProt Q96SM3 21-734, looked up)
Probable carboxypeptidase X1: APRNSVLGLAQPGTTKVPGSTPALHSSPAQPPAETANGTSEQHVRIRVIKKKKVIMKKRKKLTLTRPTPLVTAGPLVTPTPAGTLDPAEKQETGCPPLGLESLRVSDSRLEASSSQSFGLGPHRGRLNIQSGLEDGDLYDGAWCAEEQDADPWFQVDAGHPTRFSGVITQGRNSVWRYDWVTSYKVQFSNDSRTWWGSRNHSSGMDAVFPANSDPETPVLNLLPEPQVARFIRLLPQTWLQGGAPCLRAEILACPVSDPNDLFLEAPASGSSDPLDFQHHNYKAMRKLMKQVQEQCPNITRIYSIGKSYQGLKLYVMEMSDKPGEHELGEPEVRYVAGMHGNEALGRELLLLLMQFLCHEFLRGNPRVTRLLSEMRIHLLPSMNPDGYEIAYHRGSELVGWAEGRWNNQSIDLNHNFADLNTPLWEAQDDGKVPHIVPNHHLPLPTYYTLPNATVAPETRAVIKWMKRIPFVLSANLHGGELVVSYPFDMTRTPWAARELTPTPDDAVFRWLSTVYAGSNLAMQDTSRRPCHSQDFSVHGNIINGADWHTVPGSMNDFSYLHTNCFEVTVELSCDKFPHENELPQEWENNKDALLTYLEQVRMGIAGVVRDKDTELGIADAVIAVDGINHDVTTAWGGDYWRLLTPGDYMVTASAEGYHSVTRNCRVTFEEGPFPCNFVLTKTPKQRLRELLAAGAKVPPDLRRRLERLRGQKD
B12 was tested, and the “Fold Change, Decreased Expression” value was −1.4779.

B13: SLAMF1 (protein, UniProt Q13291 21-335, looked up)
Signaling lymphocytic …: ASYGTGGRMMNCPKILRQLGSKVLLPLTYERINKSMNKSIHIVVTMAKSLENSVENKIVSLDPSEAGPPRYLGDRYKFYLENLTLGIRESRKEDEGWYLMTLEKNVSVQRFCLQLRLYEQVSTPEIKVLNKTQENGTCTLILGCTVEKGDHVAYSWSEKAGTHPLNPANSSHLLSLTLGPQHADNIYICTVSNPISNNSQTFSPWPGCRTDPSETKPWAVYAGLLGGVIMILIMVVILQLRRRGKTNHYQTTVEKKSLTIYAQVQKPGPLQKKLDSFPAQDPCTTIYVAATEPVPESVQETNSITVYASVTLPES
For B13, the “Fold Change, Decreased Expression” value was −1.2218.
